Assay results from publication PMC11696079 (Nature Communications, 2025).
Where “and” joins values, the source holds several entries; their conditions need not be identical. Equal entries are not always repeated.

Molecular target: recombinant wild-type PKM2 (WT) (UniProt P14618 1-531)
Assay: SPR

recombinant wild-type PKM2 (WT), sequence (P14618 whole entry): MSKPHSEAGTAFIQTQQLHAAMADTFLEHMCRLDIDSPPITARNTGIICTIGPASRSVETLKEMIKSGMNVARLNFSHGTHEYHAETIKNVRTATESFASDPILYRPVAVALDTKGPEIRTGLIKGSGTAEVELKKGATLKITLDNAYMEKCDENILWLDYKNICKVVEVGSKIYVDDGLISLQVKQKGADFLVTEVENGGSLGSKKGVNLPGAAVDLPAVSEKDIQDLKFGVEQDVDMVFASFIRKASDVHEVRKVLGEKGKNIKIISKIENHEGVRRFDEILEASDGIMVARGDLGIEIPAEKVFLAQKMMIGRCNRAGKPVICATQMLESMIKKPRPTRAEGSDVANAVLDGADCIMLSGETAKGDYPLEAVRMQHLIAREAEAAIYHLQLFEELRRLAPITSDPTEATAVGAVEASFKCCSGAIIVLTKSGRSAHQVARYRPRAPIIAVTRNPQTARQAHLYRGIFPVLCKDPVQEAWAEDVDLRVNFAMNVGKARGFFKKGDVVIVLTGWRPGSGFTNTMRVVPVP

B1: recombinant wild-type ALDOA (WT) (enzyme)
chain: PYQYPALTPEQKKELSDIAHRIVAPGKGILAADESTGSIAKRLQSIGTENTEENRRFYRQLLLTADDRVNPCIGGVILFHETLYQKADDGRPFPQVIKSKGGVVGIKVDKGVVPLAGTNGETTTQGLDGLSERCAQYKKDGADFAKWRCVLKIGEHTPSALAIMENANVLARYASICQQNGIVPIVEPEILPDGDHDLKRCQYVTEKVLAAVYKALSDHHIYLEGTLLKPNMVTPGHACTQKFSHEEIAMATVTALRRTVPPAVTGITFLSGGQSEEEASINLNAINKCPLLKPWALTFSYGRALQASALKAWGGKKENLKAAQEEYVKRALANSLACQGKYTPSGQAGAAASESLFVSNHAY
In the case of B1, the Kd is reported as 382 nM and 322 nM.
